From publication PMC9792355

Legend:
Test in all cases: luciferase complementation assay
[1] = target: DomDIM1 SKAP1 mutant (DIM domain of SKAP1); details: HEK293T cells; read off a plot
[2] = target: N2-SKAP2 (SRC kinase adaptor phosphoprotein 2, wildtype) (UniProt O75563); details: HEK293T cells, read off a plot
[3] = target: N2-SKAP2 DomDIM2 deletion mutant (DIM domain alone); details: HEK293T cells; read off a plot
[4] = target: C1-fused SRC kinases (mean among the nine SRC kinases); details: HEK293T cells
[5] = target: N1-fused SRC kinases (mean among the nine SRC kinases); details: HEK293T cells

Substance	response (NLR normalized to HCK-N1) [1]	response (NLR normalized to HCK-N1) [3]	ratio to parent [4]	ratio to parent [5]	also measured
C1-fused HCK (hematopoietic cell kinase), wildtype (from UniProt P08631-2) Y30F	0.055	0.13	–	–	–
C1-fused HCK (hematopoietic cell kinase), wildtype (from UniProt P08631-2) Y390F	0.42	3.8	–	–	–
N1-fused HCK (hematopoietic cell kinase), wildtype (from UniProt P08631-2) R150A	8.4	7.7	–	–	–
N1-fused HCK (hematopoietic cell kinase), wildtype (from UniProt P08631-2) Y390F	0.7	–	–	–	–
N1-fused HCK (hematopoietic cell kinase), wildtype (from UniProt P08631-2) Y501F	7	6.4	–	–	–
N2-SKAP2 (SRC kinase adaptor phosphoprotein 2, wildtype) (from UniProt O75563) D129K; Y75F; Y237F; Y261F	–	–	1.63	0.88	–
N2-SKAP2 (SRC kinase adaptor phosphoprotein 2, wildtype) (from UniProt O75563) K161E	–	–	0.9	1.12	–
N2-SKAP2 (SRC kinase adaptor phosphoprotein 2, wildtype) (from UniProt O75563) R140M; D129K	–	–	0.86	0.84	–
N2-SKAP2 (SRC kinase adaptor phosphoprotein 2, wildtype) (from UniProt O75563) Y75F; Y237F; Y261F	–	–	1.01	0.76	–

More lines, main results first:

response (NLR normalized to HCK-N1) [1]	response (NLR normalized to HCK-N1) [3]	ratio to parent [4]	ratio to parent [5]	Substance	also measured
0.07	0.29	–	–	C1-fused HCK (hematopoietic cell kinase), wildtype (from UniProt P08631-2) I309A; T311A	response (normalized NLR) ([2]; parent: est. 85): 16; response (NLR normalized to HCK-N1) [2]: 0.1
2.9	8.4	–	–	C1-fused HCK (hematopoietic cell kinase), wildtype (from UniProt P08631-2) R150A	–
3.8	7.7	–	–	C1-fused HCK (hematopoietic cell kinase), wildtype (from UniProt P08631-2) Y501F	–
0.65	0.9	–	–	N1-fused HCK (hematopoietic cell kinase), wildtype (from UniProt P08631-2) I309A; T311A	response (NLR normalized to HCK-N1) [2]: 1
–	0.6	–	–	N1-fused HCK (hematopoietic cell kinase), wildtype (from UniProt P08631-2) W234A	–
0.9	1.2	–	–	N1-fused HCK (hematopoietic cell kinase), wildtype (from UniProt P08631-2) Y30F	–
–	–	2.27	1.55	N2-SKAP2 (SRC kinase adaptor phosphoprotein 2, wildtype) (from UniProt O75563) D129K	–
–	–	1.19	1.3	N2-SKAP2 (SRC kinase adaptor phosphoprotein 2, wildtype) (from UniProt O75563) E15A; R18A	–
–	–	0.48	0.41	N2-SKAP2 (SRC kinase adaptor phosphoprotein 2, wildtype) (from UniProt O75563) E15A; R18A; V24D; F27G; V28E	–
–	–	0.79	0.96	N2-SKAP2 (SRC kinase adaptor phosphoprotein 2, wildtype) (from UniProt O75563) R140M	–
–	–	0.41	0.43	N2-SKAP2 (SRC kinase adaptor phosphoprotein 2, wildtype) (from UniProt O75563) V24D; F27G; V28E	–
–	–	1.04	0.93	N2-SKAP2 (SRC kinase adaptor phosphoprotein 2, wildtype) (from UniProt O75563) V24D; F27G; V28E; D129K	–
–	–	1.48	1.64	N2-SKAP2 (SRC kinase adaptor phosphoprotein 2, wildtype) (from UniProt O75563) W336K	–
–	–	0.71	0.8	N2-SKAP2 (SRC kinase adaptor phosphoprotein 2, wildtype) (from UniProt O75563) Y151F; Y197F	–
